Reference: US20230094463A1, “ANTIBODIES THAT DISRUPT THE INTERACTION OF GAL3 AND INSULIN RECEPTOR OR INTEGRINS AND METHODS OF USE THEREOF” (TrueBinding, Inc., priority 2019, published 2023)
Numbering of substitutions follows the chain as printed. In names and notes the source's numbering stands.

B1: F846TC.14E4 (antibody, V domains shown)
VH: QVTLKESGPGILQPSQTLSLTCSFSGFSLSTSGMGVGWIRQPSGKGLEWLAHIWWDDDKYYNTALKSGLTISKDASKNQVFLKIASMDTADTATYYCARNLYDGSYGYYAMDYWGQGTSVTVSS
VL: DIVMTQAAFSNPVTLGTSASISCRSSKSLLHTNGITFLYWYLQKPGQSPQPLIYQMSNLASGVPDRFSSSGSGTDFTLRISRVEAEDVGVYYCAQNLELPWTFGGGTKLEINR
B2: F849C.8D10 (antibody, V domains shown)
VH: QVQLQQTGAELVKPGASVKLSCKASGYTFTSYWINWVKQRPGQGLEWIGNIYPGSSSIYYSEKFKSKATLTVDTSSSTAYMQLSSLTSDDSAVYYCARWGYWGQGTTLTVSS
VL: DVLMTQTPLSLPVSLGDQASISCRSSQDIVHSSGNTYLEWYLQKPGQSLKLLIYKVSNRFSGVPDRFSASGSGTDFTLKISRVEAEDLGVYYCFQGSHVPPTFGSGTKLEIKR
B3: 15F10.2D6 (antibody, V domains shown)
VH: EVQLVESGGGLVKPGGSLKLSCAASGFAFSSYAMSWVRQTPEKRLEWVATISDGGVYTYYTDHVKGRFTISRDNAEDNLYLQMSHLKSEDTAMYYCVRDGGYWGQGTTLTVSS
VL: DVLMTQTPLSLPVSLGDQASISCRSSQSIVHNNGNTYLEWYLQKPGQSPKLLIYKVSNRFSGVPDRFSGSGSGTDFTLKISRVEAEDLGVYYCFQGSHVPLTFGGGTKLELK
B4: 7D8.2D8 (antibody, V domains shown)
VH: B3 VH with A28T, V56I, T61P, H63N, E76K, D77N, Y80F
VL: B3 VL with N32S, G105A

Tests used:
[1] = target: Human GAL3 protein (TrueBinding, QCB200349 / QCB200352; R&D Systems, 8259-GA) (human) (UniProt P17931); test: cell-based or functional assay
Chain of Human GAL3 protein (TrueBinding, QCB200349 / QCB200352; R&D Systems, 8259-GA) (human) (P17931 2-250 limits assumed): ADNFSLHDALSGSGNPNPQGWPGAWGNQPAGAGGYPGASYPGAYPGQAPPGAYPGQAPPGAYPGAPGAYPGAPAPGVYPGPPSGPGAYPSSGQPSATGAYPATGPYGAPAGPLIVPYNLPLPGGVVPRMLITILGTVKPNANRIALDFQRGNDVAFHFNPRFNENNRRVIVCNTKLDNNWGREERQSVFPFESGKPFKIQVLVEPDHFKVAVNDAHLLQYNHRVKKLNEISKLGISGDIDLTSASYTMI

[2] = target: Human GAL3 protein (TrueBinding, QCB200349 / QCB200352; R&D Systems, 8259-GA) (human) (UniProt P17931); test: blocking ELISA (GAL3 coated; antibody + biotinylated ITGa3)
[3] = target: Human GAL3 protein (TrueBinding, QCB200349 / QCB200352; R&D Systems, 8259-GA) (human) (UniProt P17931); test: blocking ELISA (GAL3 coated; antibody + biotinylated ITGb3)
[4] = target: Human GAL3 protein (TrueBinding, QCB200349 / QCB200352; R&D Systems, 8259-GA) (human) (UniProt P17931); test: blocking ELISA (GAL3 coated; antibody + biotinylated ITGaV)
[5] = target: Human GAL3 protein (TrueBinding, QCB200349 / QCB200352; R&D Systems, 8259-GA) (human) (UniProt P17931); test: blocking ELISA (GAL3 coated; antibody + biotinylated ITGb1)
Wherever inhibition of Jurkat T cell adhesion is given: test concentration or dose not given here.

Binder	inhibition of Jurkat T cell adhesion [1] [%]	percent blockade of GAL3-ITGa3 interaction [2] [%]	percent blockade of GAL3-ITGb3 interaction [3] [%]	percent blockade of GAL3-ITGaV interaction [4] [%]	percent blockade of GAL3-ITGb1 interaction [5] [%]
B1	40 to 80	> 90	> 90		
B2				> 90	
B3	40 to 80	> 90			40 to 60
B4	40 to 80	> 90			40 to 60
